The values that follow come from US7033999B2, “Nitrosated and nitrosylated heme proteins” (Brigham and Women's Hospital, priority 1991, dated 2006).

Data set [1] can be described thus: Amidolytic activity against chromogenic substrate S2288. The class given is biochemical. The settings on record: S2288 hydrolysis; for Km: 25° C., TBS. The protocol:
The amidolytic activities of t-PA and its S-nitrosylated derivative were measured using the relatively specific chromogenic substrate, S2288. Substrate hydrolysis was measured spectrophotometrically at 405 nm with a Gilford Response UV/Vis Spectrophotometer (CIBA-Corning, Oberlin, Ohio). Activity was measured at 25° C. in TBS using substrate concentrations varying from 0.1–2.0 mM and t-PA at a concentration of 100 nM. Kinetic parameters were determined from initial rates by double reciprocal plot analysis. The assessment of inhibition of t-PA and S—NO-t-PA enzymatic activity by PAI-1 was made at an enzyme concentration of 10 nM and a molar ratio of t-PA to active PAI-1 of 1.0. The degree of inhibition was determined relative to the initial rates in the absence of the inhibitor.

A further data set addresses T1, fibrinogen (Homo sapiens, UniProt P02671+P02675+P02679).
T1 construct: purchased Enzyme Research Laboratories, South Bend, Ind
T1 sequence (P02671 20-629 limits assumed): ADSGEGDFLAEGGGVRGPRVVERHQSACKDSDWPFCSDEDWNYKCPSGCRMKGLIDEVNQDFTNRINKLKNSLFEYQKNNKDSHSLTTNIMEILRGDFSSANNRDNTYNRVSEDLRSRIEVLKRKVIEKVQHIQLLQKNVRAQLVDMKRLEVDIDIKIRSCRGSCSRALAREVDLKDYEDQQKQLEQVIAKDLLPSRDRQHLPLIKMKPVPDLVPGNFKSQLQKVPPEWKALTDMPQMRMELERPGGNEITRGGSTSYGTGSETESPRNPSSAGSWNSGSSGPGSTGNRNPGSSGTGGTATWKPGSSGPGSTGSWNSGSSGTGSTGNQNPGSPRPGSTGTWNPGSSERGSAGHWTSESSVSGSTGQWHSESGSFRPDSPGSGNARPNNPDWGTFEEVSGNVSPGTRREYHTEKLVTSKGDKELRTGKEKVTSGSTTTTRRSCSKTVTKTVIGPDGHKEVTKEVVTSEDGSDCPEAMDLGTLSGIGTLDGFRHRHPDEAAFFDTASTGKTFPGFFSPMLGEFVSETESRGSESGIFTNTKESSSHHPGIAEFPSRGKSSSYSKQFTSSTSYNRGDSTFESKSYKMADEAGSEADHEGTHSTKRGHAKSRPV
T1 sequence (P02675 31-491): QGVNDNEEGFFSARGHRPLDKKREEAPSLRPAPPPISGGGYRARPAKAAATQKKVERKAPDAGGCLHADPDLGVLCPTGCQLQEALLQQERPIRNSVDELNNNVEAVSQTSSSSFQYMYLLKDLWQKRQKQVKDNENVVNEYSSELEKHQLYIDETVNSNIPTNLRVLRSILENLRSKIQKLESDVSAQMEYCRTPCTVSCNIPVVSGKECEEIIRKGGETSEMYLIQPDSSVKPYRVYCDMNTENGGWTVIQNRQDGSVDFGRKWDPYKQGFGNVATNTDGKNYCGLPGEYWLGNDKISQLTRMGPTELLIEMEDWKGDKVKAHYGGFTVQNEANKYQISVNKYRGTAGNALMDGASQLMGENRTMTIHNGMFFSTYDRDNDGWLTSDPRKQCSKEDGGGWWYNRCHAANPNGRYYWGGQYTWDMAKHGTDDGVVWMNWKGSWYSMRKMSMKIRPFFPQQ
T1 sequence (P02679 27-433 limits assumed): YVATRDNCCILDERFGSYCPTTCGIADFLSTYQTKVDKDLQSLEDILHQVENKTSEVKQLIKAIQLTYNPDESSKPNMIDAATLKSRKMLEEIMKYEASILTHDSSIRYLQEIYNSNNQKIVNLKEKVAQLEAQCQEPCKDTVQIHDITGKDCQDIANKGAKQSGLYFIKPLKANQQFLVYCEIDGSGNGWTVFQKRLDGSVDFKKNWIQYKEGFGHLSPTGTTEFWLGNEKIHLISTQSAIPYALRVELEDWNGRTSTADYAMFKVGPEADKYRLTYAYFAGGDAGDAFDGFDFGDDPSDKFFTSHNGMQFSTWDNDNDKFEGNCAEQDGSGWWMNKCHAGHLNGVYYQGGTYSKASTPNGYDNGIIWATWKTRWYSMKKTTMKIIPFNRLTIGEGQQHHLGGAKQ
As to the kind of experiment: Binding of t-PA and S—NO-t-PA to fibrinogen-coated wells (ELISA). As for the experimental part:
The binding of t-PA and S——NO-t-PA to fibrinogen was measured using polystyrene microliter wells (flat-bottom, high binding 96-well EIA plates, cat. #3590, Costar, Cambridge, Mass.). Wells were coated with fibrinogen (0.08 ug/ul) and the remaining binding sites with 2% bovine serum albumin. Quantification of t-PA binding was determined using a Horse-Radish Peroxidase linked sheep antimurine antibody in a colorimetric assay in the presence of O-phenylenediamine, 0.014% H2O2. Color change was measured spectrophotometrically with a Dynatech MR500 Card Reader (Dynatech, Chantilly, Va.) at 490 nm.
Binding of t-PA is reversible and specific, and saturates at 1500–3000 nM; at saturation, 18 ng of t-PA are bound per well ([…] moles t-PA per mole of fibrinogen) with an estimated KDin the range of 15–650 nM. Binding of t-PA and S—NO-t-PA was quantified by ELISA over the concentration range of 150–1500 nM using a mixture containing six murine monoclonal anti-t-PA antibodies.
(In general: An ELISA detects its analyte on a solid surface through an enzyme-linked reagent.)

Another data set deals with gel-filtered platelets. As to the kind of experiment: Platelet aggregation (nephelometric aggregometry). Format: cell-based, human. The settings on record: for % Normalized Extent Aggregation: Thrombin (0.024 U/ml), (150 μM) as printed, mean ±S.D.

Like-named read-outs stand apart in the source and are kept apart here.

Usually kcat stands for the number of substrate molecules converted per active site and unit of time at saturation. The Km is the substrate concentration at which the rate is half of its maximum.

Regarding “S—NO-t-PA: derived from the nitrosylation of tissue-type plasminogen activator (t-PA)”, in data set [1], the kcat was found to be 0.52 s⁻¹ and the Km amounted to 295 µM. Moreover, in the data set with fibrinogen (Scatchard analysis, read-out: estimated apparent DD for surface-bound fibrinogen), the Kd is 450 nM. Also, in the data set with fibrinogen (two-way ANOVA), the “binding isotherm compared with t-PA” value is on record as “not significantly different”. Also, the “concentrations at which inhibition of platelet aggregation was demonstrable” value in the data set on gel-filtered platelets (ADP (5 μM) or thrombin (0.024 U/ml)) lay within 15 to 150 nM. Besides, the “% Normalized Extent Aggregation” value with gel-filtered platelets was determined as 0.73 ± 0.28 %.

Consider “t-PA: tissue-type plasminogen activator, provided by Genentech”, for which, in data set [1], the kcat was 0.52 s⁻¹ and the Km came to 280 µM. For the same substance, in the data set with fibrinogen (at saturation), the “moles t-PA per mole of fibrinogen at saturation” value is reported as 0105 moles t-PA per mole of fibrinogen and the “t-PA bound per well at saturation” value came out at 18 ng. For the same substance, in the data set with fibrinogen (fibrinogen-coated wells), the “concentration at which binding saturates” value was 1500 to 3000 nM. In addition, the Kd with fibrinogen (fibrinogen-coated wells, read-out: estimated KD of binding to fibrinogen) was 15 to 650 nM. Moreover, in the data set with gel-filtered platelets, the “% Normalized Extent Aggregation” value was determined as 0.90 ± 0.15%.
